{
  "source": "the DeepSol protein solubility set",
  "data": [
    {"test": "soluble on expression in E. coli; label from the status in PepcDB or PDB records", "values": [
      {"sequence": "SVFADQVGVQVIGVNDFHGALDNTGTANMPDGKVANAGTAAQLDAYMDDAQKDFKQTNPNGESIRVQAGDMVGASPANSGLLQDEPTVKNFNAMNVEYGTLGNHEFDEGLAEYNRIVTGKAPAPDSNINNITKSYPHEAAKQEIVVANVIDKVNKQIPYNWKPYAIKNIPVNNKSVNVGFIGIVTKDIPNLVLRKNYEQYEFLDEAETIVKYAKELQAKNVKAIVVLAHVPATSKNDIAEGEAAEMMKKVNQLFPENSVDIVFAGHNHQYTNGLVGKTRIVQALSQGKAYADVRGVLDTDTQDFIETPSAKVIAVAPGKKTGSADIQAIVDQANTIVKQVTEA", "soluble on expression in E. coli": "not soluble"},
      {"sequence": "MLALGKLLELTLAGREPAEKTQLTVEGVRMRWLAEGALEVRPPQARDNGTDLLLSAGIHGNETAPIELLDELIRSIARGDLKPRARILFLFGNPAAMRLGARYVEQDVNRLFNGRHEQSGGAEALRACELERLAASFFSLPDRYRLHYDLHTAIRGSKIEQFALYPWKEGRQHSRFELARLRAAGISAVLLQNKPSIVFSAYTYEQLGAEAFTLELGKARPFGQNRHVNLAPLRLRLEQIIEGSEPQPDERLEGLQLFSVAREVIKRSDAFTFNLADDVENFSELEKGYVLAEDVSDSRWVVKEEGARIIFPNPKVKNGLRAGIVIVPADADGLGLEHHHHHH", "soluble on expression in E. coli": "not soluble"},
      {"sequence": "MSYNYLKAARKIICIGRNYAAHIKELNNSTPKQPFFFLKPTSSIVTPLSSSLVKTTRPANSTFNGLNEDGTNPGPIFIPRGVKVHHEIELALIVSKHLSNVTKMKPEEVYDSISGVALALDLTARNVQDEAKKKGLPWTISKGFDTFMPISAIVSREKFSSYKSNLQDIFRVKCSVNGQLRQDGGTNLMLHPLHKILQHISTMISLEPGDIILTGTPAGVGELKPGDRVHCELLQNNDNIVDMNFECENRPGPYEFRET", "soluble on expression in E. coli": "soluble"},
      {"sequence": "MPTPKAFTLLGPTACGKTALALKIAETLPVEIISLDSALLYTGMDIGTAKPSASERAFVPHHLIDIITPVQTYSAARFVEDCTRLTGEITARGKCPLIVGGTMMYFRALTQGLNDLPEADACLRADLDEQKQMYGLDFLYRTLQKVDPETACRLKPNDSQRIGRALEVYYLTGRPMSAHLNGQPEHTLPFELYTAALIPEDRARLHENIALRFHLMLEQGFIGEVENLRRRYPGLTADSPAIRCVGYRQAWEHLDGATDRQTFIEKGIAATRQLAKRQLTWLRKTPLDCVADPFSDGTSGTRLIEAAKRFFGELEHHHHHH", "soluble on expression in E. coli": "soluble"},
      {"sequence": "STREHPPEPLDFFIWTVEDVGSWLEEINLGGYRQIFKENGVNGEYLESMSVFTTEQILHFIRRHHMKWGDFITLCKELRRIKVACLKGEQRVRRPWWAPSCLSVVFVKAAKRNRQSRVVSLKLES", "soluble on expression in E. coli": "soluble"},
      {"sequence": "MVGYAEPVLIERQSVVAAPAEQVWQRVVTPEGINDELRPWMTMSVPRGAKGMTVDTVPIGAPIGRAWLRLFGVLPFDYDRLSIAELEPGRRFREDSTMLSMRQWQHERTVTPEGDTKTIVRDRITFQTRAGLRFAAPLIAAGLRALFGHRHRRLQRHFAQGLEHHHHHH", "soluble on expression in E. coli": "soluble"},
      {"sequence": "MFQDVLVITVAVGRGGDGAVSFRREKFVPKGGPDGGDGGRGGSVYLRARGSVDSLSRLSKRTYKAEDGEHGRGSQQHGRGGEDLVIEVPRGTRVFDADTGELLADLTEEGQTVLVARGGAGGRGNMHFVSPTRQAPRFAEAGEEGEKRRLRLELMLIADVGLVGYPNAGKSSLLAAMTRAHPKIAPYPFTTLSPNLGVVEVSEEERFTLADIPGIIEGASEGKGLGLEFLRHIAGTRVLLYVLDAADDPFKTLKTLRKKVWAYDPGLLGRPSLVALNKVDLLEKEAVKALADALAREGLAVLPVSALTGAGLPALKEALHALVRSTPPPEMPKPVPRKEVQAGVEVVPVAEGVYEVRAPEVERYLARIKGDLMEAAGYLQEVFRRQGVEAALRAKGVRAGDLVRIGGLEFEYIPEV", "soluble on expression in E. coli": "soluble"},
      {"sequence": "QDSDSTAAVAVLKRAVELDAESRYQQALVCYQEGIDMLLQVLKGTKESSKRCVLRTKISGYMDRAENIKKYLDQEKEDGK", "soluble on expression in E. coli": "soluble"},
      {"sequence": "MTYGPESLSNQELLAILLRTGTKKEHVLNLSIKILNGLDSLADFRSLSLEELQEIEGIGQVRSVEIKAMLELSKRINQAEYNFKERILSSERLAKIMMSELGDKRQEHLIAIYLDTQNRVIKKQVIFIGSVRRSVAEPREILHYACKSMATSLIIVHNHPSGSTYPSENDLRFTEKIKRSCDDLGIVFLDHIIVGKKEYYSFREETDLV", "soluble on expression in E. coli": "not soluble"},
      {"sequence": "MGSDKIHHHHHHMPFLEIRLTKESGRIYEEHSHPMLSIGVMLEGETQFFLQGEEFRLQTGMLAVIPPRMAHACNPLPSQTRSYFILHLSLDFCLEIQGRLFNEGGQNLLPLRAPRIFDPMMYQGLTSLIQSLLKGYDSLKGEAFWGWCERFFARYTLEVSSRGDALISEVAEYLEGDVEEASLAFLSKRFQINPYTLERRFKKAYGTTPKRYHTDARLHRLKKLLRQGIPLALCAQYGGFSDQSHFQRFFKRRVALTPREYQLNFVQ", "soluble on expression in E. coli": "not soluble"},
      {"sequence": "MGSDKIHHHHHHMWVRVPPPAPFSIFLSPGDDIVKRRKSTRTSSFGVKGRESHDSSPFYSRAIYSNFSLPKPSEEDLIENPLPENLLDKVIEGDAREVLKKIPDCSIHLMVTSPPYNVGKEYDEDMTLDEYLEFIEEIMKEVYRVLVWGGRACFNVANLGRKPYIPLHAYLIHLFEKIGFLIRGEIIWDKGEAVSGSSTAWGSWMSPVNPVLRDQHEYIIVMSKGDLKRRKPSDREAKSTITREEFLEFTRSVWKFPPESAKRVGHPAPFPEELPYRCIQLYTFKGDVVLDPFAGVGTTCVAAVKTGRHFVGIEINPEYVKKAEERVKDILSKPTLFEDHC", "soluble on expression in E. coli": "not soluble"},
      {"sequence": "MGNCWFKGNPYFNRVSSNATKSESPKMQSPSERKEKDDSMLPSNAKEVEELRRESARNPLIAFTFEELKRITKNFRQDSLLGGGGFGRVYKGYITSDLREGLTIEEPLRVAVKVHDGDNSFQGHREWLAEVIFLGQLSHPNLVKLIGYCCEDDHRVLVYEFMPLGSVESHLFSRVMVPLPWFTRMKIALGAAKGLAFLHEAEKPVIYRDFKTSNILLDEEYNAKLSDFGLAKDGPVGDKSHVSTRIMGTYGYAAPEYIMTGHLTAMSDVYSYGVVLLELLTGRKSLDKSRPVREQTLADWAFPMLIQKKKVLGIVDPRLAEDYPVKAVQKTAMLAYHCLNRNPKARPLMRDIVATLEPLQQMEEDPSISLVSGTEV", "soluble on expression in E. coli": "soluble"},
      {"sequence": "KSCCSCCPAECEKCAKDCVCKGGEAAEAEAEKCSCCQ", "soluble on expression in E. coli": "soluble"},
      {"sequence": "MGSDKIHHHHHHMSNHAIPARLQLRHITKRYPGCLANDAVDLTIQPGEIHALLGENGAGKSTLMKIIYGVTQPDAGSIIWQGQAQIMRNPAQARSLGIGMVFQHFSLFETLSVAQNIALAMGAAAGTPRQLEPRIREVSQRYGMAVEPQRLVHSLSIGERQKVEIIRCLMQDIHLLILDEPTSVLTPQEAEELFVTLRHLASEGCSILFISHKLGEVRALCHSATVLRNGKVSGHCIPAECSDLELARLMVGDAEGLTAHYEKVSGGAAFLQVDRLSWHNPDPFGCSLKDLSLEVCSGEIVGIAGVAGNGQDELLALLSGEQTLPHAQAATLRFANTPVGHLRPDARRKRGLAFVPAERLGHGAVPELSLADNALLTAFQQGLVSNGLIQRGKARALADEIIRRFAVKTPDAQAPARSLSGGNLQKFILGREILQNPKLLIAAHPTWGVDVGAAAAIHRALIALRDAGAAILVISEDLDELFQISDRLAALSGGQLSDLIPTEQTSTVQIGGWMAGQFDHSQTQAHTPG", "soluble on expression in E. coli": "not soluble"},
      {"sequence": "MNISYIPEHIEQLTIMNVPEYYKINDNHAFIVRSKAETDFWLKTHYGFEVMNGHVFYNEMMTDFQAEVQLRMNPNSKFDQAGLFVMISENCWLKTSLEYIPEGPSHLGAVVTNNGYSDWSTQDYPTEAAKQQLRFRIIRKRGDYTIYVKKRHQWEQIRIAHLMEDIGNEPIKIGFYTCSPSKNKGFETEFLHFTIEELLEHHHHHH", "soluble on expression in E. coli": "soluble"},
      {"sequence": "MRRDYMSVYDYPVPTTPWLNTAPGLFIDDYTSTASSTVSSLSRTLIYDYEQNPDSGNNVVALAAKAGYSTWWISNQGKLGEHDTRISVIASDAEHATFLKKGSFASRKTDDKLLLQETERALADTSSPKIIFLHMMGSHPNPCDSLNSLEHHHHHH", "soluble on expression in E. coli": "not soluble"}
    ]}
  ]
}
